{
  "source": "a protein production outcome set (Wang et al. 2014)",
  "data": [
    {"test": "label from the status in PepcDB records", "values": [
      {"sequence": "MKFRIDTFTLLLLGAIVLASFLPVTGQAAEALGTAGTIAVALLFFFHGAALSRQQIIDGATHWRLHILITALTFVFFPLAVLPVNELNTIAPEWMPKDLGLGFLYLGVLPSAVSSSIAYTAMARGNVPAAICSAAASNVFGMMLTPFLLLLLVSTSGAGEFSVAEALKDIVLQLLLPFAVGHALRPWLGGYLSRNESLMARYDQCVIWIIVYSAFSHSVVSGLWQNLPVQAIVLAILICFGLLGLFMLIARLMVRKLGFSLEDEAAVVFCGSKKSLASGLPMAKVLFSGHPGFGMIVLPIMCYNQIQVIVGAILAQKYREKIQQAKSAPAHASENGCQNR", "protein production": "failed"},
      {"sequence": "MKFSRFRDSKLFFWTIEILAVVAILFVLLQMKYIFSPIGIIVSTLFMPILVAGFLFYLFNPLVLFLEKRKVPRLLSVIVIFIAFITLVVLAVMQLGPTLADQVAELAKAIPGYWQDFEKWLQGLSNNSALKDIDMKQELEKLNISLPKIMSVVVDGVASSFGAIVSFVSSFVMILVTVPFIVFYMFKDGHKFVESSGKFFPAGIRSEAKQIIKEMNKTISTYISSQAIDCMFVGLFTFIGYLIIGQPYALLFGFIAGATNIIPYLGPFIGAAPAVIVALFTSPVQALLVIVVVTIVQQIDSNLLSPYIMGKSLSIHPLTIIIILIVAGNLAGIFGMILGVPLYAVVKTIIVNVNRLIKLRRGQLAIDNNLPNPDTPKK", "protein production": "not failed"},
      {"sequence": "MKFVKIALIIAVIALVLFAAKQTGVLEIITDIKSLQEWIAGFGAWGYIVFVAAFVFACVFLLPGSAFTIVAGIVFGPIKGGVLALFSATLGAVVAFIVARFLLRNTIMKKFGDNPIFKKIDDGVAKNGTSFLILTRLVPVFPFSLQNYAYGLTGLNLSTYALVSLITMAPGAFIFAYMAGDIATNGVSAMLLVKFAVAGLILFGMSLIPKYIAKKKGINMEELAK", "protein production": "not failed"},
      {"sequence": "MKFVSIEKDEILIGNMAKLYCKVFEKTNFNEMIERMNRHIEYTGFKGIVAINDENEVVGFTYGYRSMEGQYYNQLMREALHLEQVDEWLQDCFEFVELAVHPQYQNEGLGTKLHNELLEGIPNRTSVLTTQINNEKARSLYERLDWVNVLEPFHPSKNDVPYVIMGKALKTKVN", "protein production": "failed"},
      {"sequence": "MKFYIDDLPVLFPYPKIYPEQYNYMCDIKKTLDVGGNSILEMPSGTGKTVSLLSLTIAYQMHYPEHRKIIYCSRTMSEIEKALVELENLMDYRTKELGYQEDFRGLGLTSRKNLCLHPEVSKERKGTVVDEKCRRMTNGQAKRKLEEDPEANVELCEYHENLYNIEVEDYLPKGVFSFEKLLKYCEEKTLCPYFIVRRMISLCNIIIYSYHYLLDPKIAERVSNEVSKDSIVIFDEAHNIDNVCIESLSLDLTTDALRRATRGANALDERISEVRKVDSQKLQDEYEKLVQGLHSADILTDQEEPFVETPVLPQDLLTEAIPGNIRRAEHFVSFLKRLIEYLKTRMKVLHVISETPKSFLQHLKQLTFIERKPLRFCSERLSLLVRTLEVTEVEDFTALKDIATFATLISTYEEGFLLIIEPYEIENAAVPNPIMRFTCLDASIAIKPVFERFSSVIITSGTISPLDMYPRMLNFKTVLQKSYAMTLAKKSFLPMIITKGSDQVAISSRFEIRNDPSIVRNYGSMLVEFAKITPDGMVVFFPSYLYMESIVSMWQTMGILDEVWKHKLILVETPDAQETSLALETYRKACSNGRGAILLSVARGKVSEGIDFDHQYGRTVLMIGIPFQYTESRILKARLEFMRENYRIRENDFLSFDAMRHAAQCLGRVLRGKDDYGVMVLADRRFSRKRSQLPKWIAQGLSDADLNLSTDMAISNTKQFLRTMAQPTDPKDQEGVSVWSYEDLIKHQNSRKDQGGFIENENKEGEQDEDEDEDIEMQ", "protein production": "failed"},
      {"sequence": "MKGDRLADIRTIGVVVLYRPDSSVLDAIASYRHQVHELIVVDNSEEQDHKLHSRLRDRFGATIVGEGRNLGIAAALNRAAREALAEGFDLLLTMDQDSRAEPGMVEQMLACLGSDWRERVGLIAPFHLTGARPAPGGTTPCSDVMTPMTSGCLVNLAAFREVGPFRDDFFIDFVDNEYCLRLRKKGFQVVRANRALLHHRVGDLRRYGPFVATHHSPLRRYYKTRNRCAVFAEYLRDFPVHCLFDLVRLGKEVASILIFEREKTAKLRMMWRGFLDFRRGRFGPYGGLEHHHHHH", "protein production": "failed"},
      {"sequence": "MKGEESVQLQSIEKRVSSGHSPSCAEILLSTIQEMNREENLLKALDLFTQRSLVLFDCDVAAIYLLEQGKYKPFSVSFRDDKDRETLMLREFPQDFREIGTEVVETDEEWVLALSHFGKTLGAYVLKGRRSQCRDEGSAVFVKQVISIISSFIFERILKIDSLSREQALTLLLRGTEILVRADSEEQLLSEAGEMAMEILFLPGGFFLLEGAGGTWEIRSPFGRLKQEMEWDWRTWVRQYISKEECCLRSAKVHFFDIENNPFKWERVWIHPLQTHSGVVGELWLMNAGKYLNDQEQEILTAFIRVVGVALETIRQREELARLANTDRLTGILNRQGFEQRVREEIASTLRRDSRFLFLVLDLDRFKQLNDTLGHPMGDRALKEIAQNLRCAVREQDIVARTGGDEFTVVLTDIALNEESLTVIERMRKSMHLEEYNLGVSIGVAEFPTEGRTYDELYRLADQRLYRGKNSGKGNIIAD", "protein production": "failed"},
      {"sequence": "MKGIINMATFKQYKTKSGAFWEAFTSVGKDTNGKAKRMHKRGFKTKKEAQLWTSNVQTDFTKNGFIANDNITFAELYTKWFNEDYKEQVKESTYMITDDIFRLHILPELGSQRVKRITVAQCQSIVHKWLNQGFKTYRRFRTYAISVFDFGVRMELTTRNPMAKTSIPKQKTKPQAPHVDFYEKSELLHFLDCASKHENPQAFMFFRLLAFTGLRRGEALALQWSDINFETNELTVNKTQAVGKRWRTIIQTPKTNTSYRTIVLDPDTAQWLHKWKMTQARQCFELGFNANDPSQLVFTNQQNKLMSPSTVNYFNWSICKKYGLRHIKIHAFRHTFCTLAFEAHAGINEVSKTLGHADLKITEQIYLHVTKKQKNETASKLARYMSEL", "protein production": "failed"},
      {"sequence": "MKGLVELGEKAPDFTLPNQDFEPVNLYEVLKRGRPAVLIFFPAAFSPVCTKELCTFRDKMAQLEKANAEVLAISVDSPWCLKKFKDENRLAFNLLSDYNREVIKLYNVYHEDLKGLKMVAKRAVFIVKPDGTVAYKWVTDNPLNEPDYDEVVREANKIAGELVA", "protein production": "not failed"},
      {"sequence": "MKGRLLQRLRQLSISNSLRGAFLTGALLTLIVSMVSLYSWHEQSSQVRYSLDEYFPRIHSAFLIEGNLNLAVDQLNEFLLAPNTTVRLQLRTQIIQHLDKIERLSQGLQLAERRQLAVILQDSRTLLAELDNALYNMFLVREKVSELSARIDWLHDDFTTELNSLVQDFTWQQGTLLDQIEANQGDAAQYLQRSREVQNEQQQVYTLARIENQIVDDLRDRLNELKSGNNDGMLVETHIRYLENLKKTADENIRALDDWPSTITLRQTIDELLEIGMVKNKMPDTMRDYVAAQKALLDASRAREATLGRFRTLLEAQLGSSHQQMQTFNQRLEQIVRVSGGLILVTTLLALLLAWGLNHYFIRSRLVKRFTALNQAVVQIGLGRTDSTIPVYGRDELGRIARLLRHTLGQLNMQRRQLEQEVAERKEIEADLRAMQDELIQTAKLAVVGQTMTTLAHEINQPLNALSMYLFTAGRAIEQGQSGQARNTLTKAEGLINRIDAIIRSLRQFTRRAELETPLYPVDLRQTFVAAWELLAMRHQSRQGALSLPTDTVWVSGDEVRIQQVLVNVLANALDACSHDAAIAVTWQTQGEALEVYIADNGPGWPGALLPSLLKPFTTSKAVGLGIGLSISVSLMAQMKGDLRLASTLTRNACVVLQFSVTDVDDVE", "protein production": "failed"},
      {"sequence": "MKGSVKKDKKTGKYFYIVDIDIDPLTGKRKQKKKRGFTSKKEAENALTNLLSEVHTGTYVEPSKLSYGEYLESWFNTKRHSVGIQTAKVLKGYLNSRIIPSLGNIKLAKLTSLHMQNYVNSLRDEGLKRGTIEKIIKVIRNSLEHAIDLELITKNVAAKTKLPKADKEELTVWNEQEVQLFLKAAQDGRYSIVFHMALVTGMRQGELLGLRWKDVDLEKGHLIISQTLSHDGKTFLVGGKTKSSLRKILLPASTIAKLKKHRAVILKEKLSQGEEYQDNDLVMCTPSGTPINPANVRRSLNALIQKAAVPKIRFHDLRHTHATLLLAKGVNVKVISERLGHSNIKITLDTYSHVLPTMQEDAVNKMEEIL", "protein production": "failed"},
      {"sequence": "MKGVIMIIDGMADRPLEKLSGRTPLEAASTPNMDRIAESGINGIMDPIKPGVRAGSDTSHLSILGYDPYRVYTGRGPFEAAGVGLDVKPGDIAFRCNFATADEDMIITDRRAGRIRSGTSSIARTINSMTIEGFEDVEIIFRESTGHRAVLVLRGPGLGDKVSDADPKVEGKPPKKIKALDGSPESRKTAEVLNRIVKESYEILRDHPVNTGRIERGEAPANIILPRGAGAVPHVEKFQERYDLKAACIAETGLIKGIGHLTGMDVIDVEGATGGIDTDLESIKNAISSAIAADYDFLLINIDGADEAGHDGDLEGKVRFIERVDSILGDLMGDDIYFILTADHSTPVSVMDHTGDPVPIAITGPEVRVDDVTSFSERAAAAGGLCRIRGSDVMDILLDLMNKKEKFGALEHHHHHH", "protein production": "failed"},
      {"sequence": "MKGVRSMMGNLVITIGRECGSAGRLIGQKLAADLGVKCYDKELLTLAAKNSGLCEELFKTHDEKPTSSFLYSLVMDTYSLGYNTSAYMDMPINHKIFLAQFDTIKKLAEEESCVIVGRCADYALADYPNTVSVFICGDEEDKIRHLMERHNVDEAKAKDIMIKTDKRRASYYNYYSSKRWGSCKSYDMCISSSAVGYDGAVDIIKEFAKKKQEFLKTKNYK", "protein production": "not failed"},
      {"sequence": "MKHAKKSLFTFIIFMTILSITFNPFSAKAAPLMLNLPAPQVDQLYIGDDYITGKLQQEVPMHYPGNAAYVLFNNKQYNITDYTVENDVNFRLKLPKTLEAGDTLNYFTITGNVLDPVAYPGQESYKLAGPFSPIEKANIQVNYVDETNQTLATSDTLSGKLGETYTTSPKAIDGYQVKETPTNATGTYTTNTETIQINYVYEKTAVEGANVSVEYINEATNESIAPTETLSGKIGTTFQAEVKEIDGYELSQVPSNQSGTYTDQTQSVIFKYKKITTPDEVAKDVTVTYKDTKGNQLADPVILKGDIGSTFETEAKSFKGYKLTKTPSNHSSVFTSDSQEVEYVYSKDDAVITPPVTPVNPDKPIINPVKPVNPATSTVPNKNISKKNTTKTVNQTGKTSTALQLPKTGDSENNLPLIIGVSLLISGVYIFTTRRKRVK", "protein production": "failed"},
      {"sequence": "MKHGMNARKQLWIAVICMTFVVILGTIGFMTIEEISLFQAFWMTMITVLTVGYGDAVPVTQAGKVFALLIIPVGVGIVTYAIGVVAAMIIEGNLFHAVRRKKMDKQIAQLKNHIIVCGCGRVGLQVVHELQEKNIPFVVVDKDESILEQEKLLFVHGDATEDQVLHNAGILKAAGLVAIVANDAENVFITLTARGLNDTIKIVARSEKPETEEKLRRAGANKVINPSSMAGIHIAKGIANPLTVHYIDTVLYGIEQSFVIEEILVGKDSILVGKSLLESNVRNQFDVTILAISRNGDIIHNPAGQEKLKERDMIIVFGSVEKLGQFEKELQSTR", "protein production": "failed"},
      {"sequence": "MKHIIILGDGMADWPAESLGNKTLLQYSSTPYMDKLAAMGRTGRLVTVAPGFHPGSEVANMSVMGYNLPKVYEGRGPLEAASIGVELQPGDMAMRCNIICIEDEKIKNHSAGHITTEEADVLVRYLEEKLGSDRIHFYTGVQYRHLLVIKGGNKQLDCTPPHDVPLQPFRPLMVKAEVPEAQETAGLINNLILASQELLADHPVNQKRIAEGKDPANSIWPWSPGYRPQMEPLSGKYPAIKKGAVISAVDLINGIGHYAGLRRIAVEGATGLYNTNYENKVAAALEALKTDDFVYLHIEASDEAGHEGDFKLKQFTIENLDKRVVGPVYEAVKDWDEPVAIAVLPDHPTPCELRTHTAEPVPFLIYYPGIEPDCVQTFDEVACVEGSYGILKEDEFMNEFMKK", "protein production": "failed"},
      {"sequence": "MKHIQINPSILSADLARLGDDVKAVLAAGADNIHFDVMDNHYVPNLTFGPMVLKALRDYGITAGMDVHLMVKPVDALIESFAKAGATSIVFHPEASEHIDRSLQLIKSFGIQAGLALNPATGIDCLKYVESNIDRVLIMSVNPGFGGQKFIPAMLDKAKEISKWISSTDRDILLEIDGGVNPYNIAEIAVCGVNAFVAGSAIFNSDSYKQTIDKMRDELNKV", "protein production": "not failed"}
    ]}
  ]
}
